Results reported in EP4789728A2 (Serpin Pharma, LLC, dated 2026).
No end group written: not given here.

B1: SP163M (peptide)
peptide: VKFNKPFVFLXIEQNTK
modifications: not fully specified; Norleucine (Nle) in place of the methionine (VKFNKPFVFL[Nle]IEQNTK); N-terminus acetylated; C-terminus amidated; biotinylated in the ELISA (Figure 3); labelled with Cy5.5 in the bead assay (Figure 4)
B2: SP34 (Scrambled Core) (peptide)
peptide: FPKMVPQFNTELKIFPEVNIK
modifications: also: biotinylated in ELISA, site not given here, labelled with Cy5.5 in bead assay, site not given here
notes: Contains the amino acids found in SP16 in scrambled orientation; also called scrambled control; scrambled control SP34 peptide

What was measured:
TMPRSS2 = TMPRSS2 (UniProt O15393 106-492, limits assumed); experiment: cell-based or functional assay
Chain of TMPRSS2 (O15393 106-492 limits assumed): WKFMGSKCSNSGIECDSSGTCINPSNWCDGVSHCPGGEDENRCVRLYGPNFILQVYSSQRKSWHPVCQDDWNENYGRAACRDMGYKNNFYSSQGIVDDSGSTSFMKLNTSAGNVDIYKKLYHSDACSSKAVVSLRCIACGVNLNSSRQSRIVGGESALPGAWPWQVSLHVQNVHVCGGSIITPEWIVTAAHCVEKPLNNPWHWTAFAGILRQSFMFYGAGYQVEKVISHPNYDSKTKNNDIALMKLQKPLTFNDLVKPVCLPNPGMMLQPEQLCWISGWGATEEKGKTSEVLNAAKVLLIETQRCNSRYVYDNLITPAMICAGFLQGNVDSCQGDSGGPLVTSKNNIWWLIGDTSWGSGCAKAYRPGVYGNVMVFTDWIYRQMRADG

[1] = target: T1, recombinant LRP1-FC fusion protein (Cluster II) (UniProt Q07954 805-1184, limits assumed); experiment: Cy5.5-labelled peptide on LRP1-FC (Cluster II) protein G beads, flow cytometry
T1 construct: domain: Cluster II; Captured on protein G Dynabeads; not shown: Fc part
T1 sequence (looked up): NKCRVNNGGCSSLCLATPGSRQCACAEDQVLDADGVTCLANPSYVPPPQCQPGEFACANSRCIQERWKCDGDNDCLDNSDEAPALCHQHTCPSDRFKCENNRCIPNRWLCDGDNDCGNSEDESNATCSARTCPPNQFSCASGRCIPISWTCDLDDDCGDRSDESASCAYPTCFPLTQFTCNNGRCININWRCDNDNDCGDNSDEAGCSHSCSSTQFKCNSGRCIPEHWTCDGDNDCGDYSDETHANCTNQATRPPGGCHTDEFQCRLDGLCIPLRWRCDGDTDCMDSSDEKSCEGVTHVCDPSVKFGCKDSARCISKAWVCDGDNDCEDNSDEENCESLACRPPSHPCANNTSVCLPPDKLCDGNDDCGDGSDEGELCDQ

[2] = target: T2, Recombinant LRP1 (Cluster II) (UniProt Q07954 805-1184, limits assumed); experiment: ELISA, plate-bound recombinant LRP1 (Cluster II), increasing concentrations of biotinylated peptide, streptavidin HRP
T2 construct: domain: Cluster II; Coated on the ELISA plate
T2 sequence (looked up): T1 sequence (looked up)

| Binder | IC50 of inhibition of TMPRSS2 activity (TMPRSS2) [µg/mL] | binding result [1] | binding result [2] |
| --- | --- | --- | --- |
| B1 | 1.12 |  |  |
| B2 |  | no binding (tested: 1µg/ml) | no binding |
| VKFNKAAAAAAIEQNTK (not fully specified, also called SP16AALRP1 peptide) [SP16AALRP1] |  | no binding (tested: 1µg/ml) |  |
